# Assay results taken from patent publication US20050100540A1, “Platelet-activating factor acetylhydrolase” (priority 1993, published 2005).
# Numbering of substitutions follows the chain as printed. Names may count otherwise.
# B1: Wild type: Wild type human PAF-AH expressed in E. coli, reference of Table 8 (protein, UniProt Q13093 22-441, looked up)
# Platelet-activating factor …: FDWQYINPVAHMKSSAWVNKIQVLMAAASFGQTKIPRGNGPYSVGCTDLMFDHTNKGTFLRLYYPSQDNDRLDTLWIPNKEYFWGLSKFLGTHWLMGNILRLLFGSMTTPANWNSPLRPGEKYPLVVFSHGLGAFRTLYSAIGIDLASHGFIVAAVEHRDRSASATYYFKDQSAAEIGDKSWLYLRTLKQEEETHIRNEQVRQRAKECSQALSLILDIDHGKPVKNALDLKFDMEQLKDSIDREKIAVIGHSFGGATVIQTLSEDQRFRCGIALDAWMFPLGDEVYSRIPQPLFFINSEYFQYPANIIKMKKCYSPDKERKMITIRGSVHQNFADFTFATGKIIGHMLKLKGDIDSNVAIDLSNKASLAFLQKHLGLHKDFDQWDCLIEGDDENLIPGTNINTTNQHIMLQNSSGIEKYN
# B2: V279F: PAF-AH with phenylalanine for valine at position 279, mutation of PAF-AH deficient individuals, expressed in E. coli (protein)
# chain: MVPPKLHVLFCLCGCLAVVYPFDWQYINPVAHMKSSAWVNKIQVLMAAASFGQTKIPRGNGPYSVGCTDLMFDHTNKGTFLRLYYPSQDNDRLDTLWIPNKEYFWGLSKFLGTHWLMGNILRLLFGSMTTPANWNSPLRPGEKYPLVVFSHGLGAFRTLYSAIGIDLASHGFIVAAVEHRDRSASATYYFKDQSAAEIGDKSWLYLRTLKQEEETHIRNEQVRQRAKECSQALSLILDIDHGKPVKNALDLKFDMEQLKDSIDREKIAVIGHSFGGATFIQTLSEDQRFRCGIALDAWMFPLGDEVYSRIPQPLFFINSEYFQYPANIIKMKKCYSPDKERKMITIRGSVHQNFADFTFATGKIIGHMLKLKGDIDSNVAIDLSNKASLAFLQKHLGLHKDFDQWDCLIEGDDENLIPGTNINTTNQHIMLQNSSGIEKYN
# B3: S273A: PAF-AH amino acid substitution product expressed in E. coli (protein)
# chain: B2 chain with S273A, F279V
# B4: pUC trp AH Met1: PAF-AH from entire coding sequence beginning at the initiating methionine, E. coli, trp promoter (protein, UniProt Q13093 1-441, looked up)
# chain: B2 chain with F279V
# modifications: full-length
# B5: D338A: PAF-AH amino acid substitution product expressed in E. coli (protein)
# chain: B2 chain with F279V, D338A
# B6: D286N: PAF-AH amino acid substitution product expressed in E. coli (protein)
# chain: B2 chain with F279V, D286N
# B7: C67S: PAF-AH cysteine to serine mutant expressed in E. coli (protein)
# chain: B2 chain with C67S, F279V
# B8: C407S: PAF-AH cysteine to serine mutant expressed in E. coli (protein)
# chain: B2 chain with F279V, C407S
# B9: H351A: PAF-AH amino acid substitution product expressed in E. coli (protein)
# chain: B2 chain with F279V, H351A
# B10: H395A, H399A: PAF-AH double amino acid substitution product expressed in E. coli (protein)
# chain: B2 chain with F279V, H395A, H399A
# B11: D296A: PAF-AH amino acid substitution product expressed in E. coli (protein)
# chain: B2 chain with F279V, D296A
# B12: C229S: PAF-AH cysteine to serine mutant expressed in E. coli (protein)
# chain: B2 chain with C229S, F279V
# B13: D304A: PAF-AH amino acid substitution product expressed in E. coli (protein)
# chain: B2 chain with F279V, D304A
# B14: C291S: PAF-AH cysteine to serine mutant expressed in E. coli (protein)
# chain: B2 chain with F279V, C291S
# B15: S108A: PAF-AH amino acid substitution product expressed in E. coli (protein)
# chain: B2 chain with S108A, F279V
# B16: C334S: PAF-AH cysteine to serine mutant expressed in E. coli (protein)
# chain: B2 chain with F279V, C334S
# B17: D286A: PAF-AH amino acid substitution product expressed in E. coli (protein)
# chain: B2 chain with F279V, D286A
# Assays:
# [1] = PAF-AH activity of amino acid substitution products expressed in E. coli; type: biochemical; conditions: for PAF-AH activity: point mutants expressed in E. coli
# Description: By site-directed mutagenesis and PCR, individual codons of the human PAF-AH coding sequence were modified to encode alanine residues and were expressed in E. coli. […] The distances between active site residues is similar for PAF-AH (Ser to Asp, 23 amino acids; Ser to His, 78 amino acids) and other lipases. […] Cysteines are often critical for the functional integrity of proteins because of their capacity to form disulfide bonds. The plasma PAF-AH enzyme contains five cysteines. To determine whether any of the five is critical for enzyme actvity, each cysteine was mutated individually to a serine and the resulting mutants were expressed in E. coli. As shown below in Table 8, a significant but not total loss of PAF-AH activity resulted from the conversion of either Cys229, r Cys291 to serine. Therefore, these cysteines appear to be necessary for full PAF-AH activity. Other point mutations had little or no effect on PAF-AH catalytic activity. In Table 8, “++++” represent wild type PAF-AH activity of about 40-60 U/ml/OD600, “+++” represents about 20-40 U/ml/OD600 activity, “++” represents about 10-20 U/ml/OD600 activity, “+” represents 1-10 U/ml/OD600 activity, and “−” indicates <1 U/ml/OD600 activity.
# To test whether this mutation crippled the enzyme, an E. coli expression construct containing the mutation was generated by methods similar to that described in Example 10. […] This amino acid substitution presumably results in a structural modification which causes the observed deficiency of activity and lack of immunoreactivity with the PAF-AH antibodies of the invention.
# [2] = PAF-AH activity of E. coli constructs with extended amino termini (lysate, media); type: biochemical; conditions: trp promoter
# Method: PAF-AH activity in transfectant supernatants was determined by the method of Stafforini et al. (1990), supra, with the following modifications. Briefly, PAF-AH activity was determined by measuring the hydrolysis of ^3H-acetate from [acetyl-^3H) PAF (New England Nuclear, Boston, Mass.). The aqueous free ^3H-acetate was separated from labeled substrate by reversed-phase column chromatography over octadecylsilica gel cartridges (Baker Research Products, Phillipsburg, Pa.). Assays were carried out using 10 μl transfectant supernatant in 0.1M Hepes buffer, pH 7.2, in a reaction volume of 50 μl. A total of 50 pmoles of substrate were used per reaction with a ratio of 1:5 labeled: cold PAF. Reactions were incubated for 30 minutes at 37° C. and stopped by the addition of 40 μl of 10M acetic acid. The solution was then washed through the octadecylsilica gel cartridges which were then rinsed with 0.1M sodium acetate. The aqueous eluate from each sample was collected and counted in a liquid scintillation counter for one minute. Enzyme activity was expressed in counts per minute.
# and encompassed the termination codon of sAH 406-3 and contained an EcoRV cloning site. PCR reactions were performed essentially as described in Example 3. The resulting PCR product was digested with XbaI and EcoRV and subcloned into a pBR322 vector containing the Trp promoter [deBoer et al., PNAS. 80:21-25 (1983)] immediately upstream of the cloning site. E. coli strain XL-1 Blue was transformed with the expression construct and cultured in L broth containing 100 μg/ml of carbenicillin. Transformants from overnight cultures were pelleted and resuspended in lysis buffer containing 50 mM Tris-HCl pH 7.5, 50 mM NaCl, 10 mM CHAPS, 1 mM EDTA, 100 μg/ml lysozyme, and 0.05 trypsin-inhibiting units (TIU)/ml Aprotinin. Following a 1 hour incubation on ice and sonication for 2 minutes, the lysates were assayed for PAF-AH activity by the method described in Example 4. E. coli transformed with the expression construct (designated trp AH) generated a product with PAF-AH activity.
# Several E. coli expression constructs were also evaluated which produce PAF-AH with extended amino termini. The N-terminus of natural plasma PAF-AH was identified as Ile42 by amino acid sequencing (Example 2). […] Acids Res., 14:4683-4690 (1986)]. Presumably a more classical signal sequence (M1-A17) is recognized by the cellular secretion system, followed by endoproteolytic cleavage. The entire coding sequence for PAF-AH beginning at the initiating methionine (nucleotides 162 to 1487 of SEQ ID NO: 7) was engineered for expression in E. coli using the trp promoter. […] Another expression construct, beginning at Val18 (nucleotides 213 to-1487 of SEQ ID NO: 7), produced active PAF-AH at about one third the level of the original construct.
Molecule,PAF-AH activity [1],further results
B1,++++ (“++++” represent wild type PAF-AH activity of about 40-60 U/ml/OD600),
B2,,PAF-AH activity of E. coli expression construct containing the mutation ([1]; control construct lacking the mutation fully active): no PAF-AH activity
B3,− (“−” indicates <1 U/ml/OD600 activity),
B4,,"PAF-AH activity, Lysate ([2]; E. coli lysate): 3.1 U/ml/OD600; PAF-AH activity, Media ([2]; E. coli media): 0.003 U/ml/OD600"
B5,++++ (“++++” represent wild type PAF-AH activity of about 40-60 U/ml/OD600),
B6,++ (“++” represents about 10-20 U/ml/OD600 activity),
B7,+++ (“+++” represents about 20-40 U/ml/OD600 activity),
B8,+++ (“+++” represents about 20-40 U/ml/OD600 activity),
B9,− (“−” indicates <1 U/ml/OD600 activity),
B10,++++ (“++++” represent wild type PAF-AH activity of about 40-60 U/ml/OD600),
B11,− (“−” indicates <1 U/ml/OD600 activity),
B12,+ (“+” represents 1-10 U/ml/OD600 activity),
B13,++++ (“++++” represent wild type PAF-AH activity of about 40-60 U/ml/OD600),
B14,+ (“+” represents 1-10 U/ml/OD600 activity),
B15,++++ (“++++” represent wild type PAF-AH activity of about 40-60 U/ml/OD600),
B16,++++ (“++++” represent wild type PAF-AH activity of about 40-60 U/ml/OD600),
B17,− (“−” indicates <1 U/ml/OD600 activity),
